# Source: PMC3502752
# Tests used:
# Settings in all cases: ELISA: 20 mM Tris-HCl pH 7.5, 100 mM NaCl, room temperature, 1 h (washes with 0.02% Tween-20); SPR conditions not in the material
# MRL-4 scFv (mouse) [1] = experiment: ELISA
# [2] = system: BV04-01 scFv VH A23P (mouse (lupus-prone)); experiment: ELISA
# [3] = system: BV04-01 scFv (SCA04-01) (mouse (lupus-prone)); experiment: ELISA
# [4] = system: MRL-4 scFv VH P23A (mouse); experiment: ELISA
# MRL-4 scFv (mouse) [5] = experiment: SPR
# [6] = system: BV04-01 scFv VH A23P (mouse (lupus-prone)); experiment: SPR
# [7] = system: BV04-01 scFv (SCA04-01) (mouse (lupus-prone)); experiment: SPR
# [8] = system: MRL-4 scFv VH P23A (mouse); experiment: SPR
substance,measurement,setting,value
254-bp PCR fragment (ELISA),binding signal,MRL-4 scFv (mouse) [1],100%
same,binding signal (% of BV04-01 wild type),[2],1.2
same,binding signal,[3],100%
same,binding signal (% of MRL-4 wild type),[4],4.6
double-stranded DNA fragments (SPR ligand),Kd,MRL-4 scFv (mouse) [5],17 nM
same,Kd,[6],290 nM
same,Kd,[7],1.8 nM
same,Kd,[8],8500 nM
